Earlier results on one substance are cited in publication PMC11939847.

The data set concerns the target BRD4 ET (Homo sapiens) (UniProt O60885). Kind of data set: SPR.

As to LKIRL peptide, the Kd is 145 nM.
